Test [1] has as its target T1, Fhm, hTL1A(Q167R), soluble, CHO-expressed, residues 72-251 of SEQ ID NO:246 (human, UniProt O95150 72-251).
T1 construct: also called Fhm (CHO); FHM (CHO)
T1 chain: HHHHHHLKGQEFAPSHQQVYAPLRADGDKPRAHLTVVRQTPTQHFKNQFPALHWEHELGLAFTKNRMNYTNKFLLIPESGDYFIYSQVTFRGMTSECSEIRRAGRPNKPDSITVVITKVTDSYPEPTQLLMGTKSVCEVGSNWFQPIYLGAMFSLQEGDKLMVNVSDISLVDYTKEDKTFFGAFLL
The test can be described thus: ELISA, blocks FHM (150 pM) binding hDR3-Fc; blocking of FHM binding to hDR3. On the procedure:
The ability of antibodies to block human TL1A binding to its cognate receptors, the DR3 and DcR3 receptors, was measured using a competition sandwich ELISA. In addition, blocking of a human TL1A variant FHM (human TL1A Q167R) and the cynomolgus monkey (Macaca fascicularis) TL1A (MfTL1A) protein binding to the human DR3 or DcR3 receptors was measured in the same manner. Constant amounts of biotinylated human TL1A or FHM (both expressed with a 6-His tag in CHO cells) or biotinylated MfTL1A (expressed in CHO cells) were separately titrated with varying amounts of antibodies. The antibody-protein complexes were incubated in solution (1 hr, 25° C.) and then transferred to microtiter plates coated with human DR3 (hDR3) or human DcR3 (hDcR3) expressed as human IgG1 Fc fusion proteins. After one hour at 25° C. the wells were washed, and bound human or monkey TL1A was detected with streptavidin conjugated with horseradish peroxidase (HRP). Wells were developed with a TMB solution to produce a colorimetric reaction and quenched with aqueous sulfuric acid before reading absorbance at 450 nm on a Perkin-Elmer Victor X5 plate reader. A sigmoidal dose-response curve was fit to the data using the Prism™ data analysis package. […] Both fully human anti-hTL1A mAbs and comparator antibodies, i.e., control mAb1 (an anti-hTL1A antibody with heavy and light chain variable domains having the amino acid sequences corresponding to SEQ ID NOS:21 and 27, respectively, of US 2009/0280116) and control mAb3 (an anti-hTL1A antibody with heavy and light chain variable domains having the amino acid sequences corresponding to SEQ ID NOS:57 and 48, respectively, of US 2009/0280116), were included in the study. NB: No binding under the conditions tested; NT: Not tested. Concentrations of biotinylated soluble ligands: (1) 150 pM; (2) 500 pM; (3) 10 pM; and (4) 50 pM.
In general terms: An ELISA detects its analyte on a solid surface through an enzyme-linked reagent.

Test [2] concerns the target T2, cynomolgus monkey TL1A, soluble, CHO-expressed, residues 72-251 of SEQ ID NO:248 with N-terminal His6-tag (cynomolgus monkey (Macaca fascicularis), UniProt O95150 72-251 (human entry)).
T2 construct: also called MfTL1A; MfTL1A (CHO)
T2 chain: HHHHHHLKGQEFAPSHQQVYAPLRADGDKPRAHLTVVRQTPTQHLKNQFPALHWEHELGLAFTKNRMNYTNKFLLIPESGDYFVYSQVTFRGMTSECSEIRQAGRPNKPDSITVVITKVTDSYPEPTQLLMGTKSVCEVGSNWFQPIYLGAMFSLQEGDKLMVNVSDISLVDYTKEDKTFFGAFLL
In words: ELISA, blocks MfTL1A (500 pM) binding hDR3-Fc; blocking of MfTL1A binding to hDR3. On the procedure:
The ability of antibodies to block human TL1A binding to its cognate receptors, the DR3 and DcR3 receptors, was measured using a competition sandwich ELISA. In addition, blocking of a human TL1A variant FHM (human TL1A Q167R) and the cynomolgus monkey (Macaca fascicularis) TL1A (MfTL1A) protein binding to the human DR3 or DcR3 receptors was measured in the same manner. Constant amounts of biotinylated human TL1A or FHM (both expressed with a 6-His tag in CHO cells) or biotinylated MfTL1A (expressed in CHO cells) were separately titrated with varying amounts of antibodies. The antibody-protein complexes were incubated in solution (1 hr, 25° C.) and then transferred to microtiter plates coated with human DR3 (hDR3) or human DcR3 (hDcR3) expressed as human IgG1 Fc fusion proteins. After one hour at 25° C. the wells were washed, and bound human or monkey TL1A was detected with streptavidin conjugated with horseradish peroxidase (HRP). Wells were developed with a TMB solution to produce a colorimetric reaction and quenched with aqueous sulfuric acid before reading absorbance at 450 nm on a Perkin-Elmer Victor X5 plate reader. A sigmoidal dose-response curve was fit to the data using the Prism™ data analysis package. […]

Our source for the IC50 values is patent US20140120109A1 (Regeneron, published 2014).

One may read the IC50 as the concentration at which inhibition is half-maximal.

B1: H4H1804N (antibody, human IgG4 S228P, V domains shown)
VH: QVQLHQWGAGLLKPSETLSLTCAVSGVSFSDYHWAWIRQSPGKGLEWIGDINHRGRTNYNPSLKSRVTISLDTSGNPFSLKLTSVTAADTAVYYCARDFPNWVFDSWGQGILVTVSS
VL: EIVLSQSPGTLSLSPGERATLSCRASQSVSSSFLAWYQQYPGQAPRLLIYGASRRATGIPDRFRGSGSGTDFTLTISRLEPEDFAVYYCQQYGSSPLTFGGGTKVENK
notes: human IgG4(S108P) form of H2M1804N
In turn, B1 returned an IC50 in test [1] of 0.069 nM.

B2: H4H1750P (antibody, human IgG4 S228P, V domains shown)
VH: QVQLVESGGGVVQPGRSLRLSCVASGFTFSNYGMHWVRQAPGKGLEWVAVISYDGNNDLYSDSVKGRFTISRDNAKNALSLQMTSLRAEDTAVYYCARDSTMTPYYYHGIDVWGQGTTVTVSA
VL: DIQMTQSPSSLSASVGDRVTITCRASQDIRNDLGWYQQKPGKAPKRLIYAASSLQSGVPSRFSGSGSGTDFTLTISSLQPEDFATYYCLQHNSYPPTFGQGTKVEIK
For B2, in test [2], the IC50 was 5.21 nM.
